Kd data for 25 substances are collected here from paper PMC7774954, “Interactomic affinity profiling by holdup assay: Acetylation and distal residues impact the PDZome-binding specificity of PTEN phosphatase” (PLoS ONE, 2020).

Test [1] has as its target fRSK1, fluorescein-labelled RSK1 PBM peptide. Kind of test: fluorescence polarisation; direct: N-terminally fluorescein-labelled PBM peptide (tracer) with increasing amounts of MBP-PDZ; 384-well plates; triplicate; direct binding model (ProFit).
The next test concerns the target PTEN_13 (human) (UniProt P60484). Kind of test: holdup assay; biotinylated PBM peptide saturating streptavidin resin (biotin resin as reference); tag-PDZ at 4 uM in crude E. coli lysate, 15 min, filtration, free tag-PDZ by capillary electrophoresis; singlicate; BI cut-off 0.20; BI converted into KD with the peptide concentration back-calculated from FP.
Another test addresses PTEN_Ac (human) (UniProt P60484). Described as above.
Test [2] has as its target GOPC-1, PDZ domain of GOPC (human) (UniProt Q9HD26). Briefly: fluorescence polarisation; competitive: pre-formed complex of PDZ domain (>60-80% complex) and 50 nM fluorescent tracer peptide, increasing amount of unlabeled PTEN peptide (8 concentrations); 20 mM HEPES pH 7.5, 150 mM NaCl, 0.5 mM TCEP, 0.01% Tween 20; triplicate; competitive binding model (ProFit); apparent.

For test [3], the target named is ARHGEF12-1, PDZ domain of ARHGEF12 (human) (UniProt Q9NZN5). Described as above.
ARHGEF12-1, PDZ domain of ARHGEF12 (human), sequence (Q9NZN5 whole entry, the tested form may be a part): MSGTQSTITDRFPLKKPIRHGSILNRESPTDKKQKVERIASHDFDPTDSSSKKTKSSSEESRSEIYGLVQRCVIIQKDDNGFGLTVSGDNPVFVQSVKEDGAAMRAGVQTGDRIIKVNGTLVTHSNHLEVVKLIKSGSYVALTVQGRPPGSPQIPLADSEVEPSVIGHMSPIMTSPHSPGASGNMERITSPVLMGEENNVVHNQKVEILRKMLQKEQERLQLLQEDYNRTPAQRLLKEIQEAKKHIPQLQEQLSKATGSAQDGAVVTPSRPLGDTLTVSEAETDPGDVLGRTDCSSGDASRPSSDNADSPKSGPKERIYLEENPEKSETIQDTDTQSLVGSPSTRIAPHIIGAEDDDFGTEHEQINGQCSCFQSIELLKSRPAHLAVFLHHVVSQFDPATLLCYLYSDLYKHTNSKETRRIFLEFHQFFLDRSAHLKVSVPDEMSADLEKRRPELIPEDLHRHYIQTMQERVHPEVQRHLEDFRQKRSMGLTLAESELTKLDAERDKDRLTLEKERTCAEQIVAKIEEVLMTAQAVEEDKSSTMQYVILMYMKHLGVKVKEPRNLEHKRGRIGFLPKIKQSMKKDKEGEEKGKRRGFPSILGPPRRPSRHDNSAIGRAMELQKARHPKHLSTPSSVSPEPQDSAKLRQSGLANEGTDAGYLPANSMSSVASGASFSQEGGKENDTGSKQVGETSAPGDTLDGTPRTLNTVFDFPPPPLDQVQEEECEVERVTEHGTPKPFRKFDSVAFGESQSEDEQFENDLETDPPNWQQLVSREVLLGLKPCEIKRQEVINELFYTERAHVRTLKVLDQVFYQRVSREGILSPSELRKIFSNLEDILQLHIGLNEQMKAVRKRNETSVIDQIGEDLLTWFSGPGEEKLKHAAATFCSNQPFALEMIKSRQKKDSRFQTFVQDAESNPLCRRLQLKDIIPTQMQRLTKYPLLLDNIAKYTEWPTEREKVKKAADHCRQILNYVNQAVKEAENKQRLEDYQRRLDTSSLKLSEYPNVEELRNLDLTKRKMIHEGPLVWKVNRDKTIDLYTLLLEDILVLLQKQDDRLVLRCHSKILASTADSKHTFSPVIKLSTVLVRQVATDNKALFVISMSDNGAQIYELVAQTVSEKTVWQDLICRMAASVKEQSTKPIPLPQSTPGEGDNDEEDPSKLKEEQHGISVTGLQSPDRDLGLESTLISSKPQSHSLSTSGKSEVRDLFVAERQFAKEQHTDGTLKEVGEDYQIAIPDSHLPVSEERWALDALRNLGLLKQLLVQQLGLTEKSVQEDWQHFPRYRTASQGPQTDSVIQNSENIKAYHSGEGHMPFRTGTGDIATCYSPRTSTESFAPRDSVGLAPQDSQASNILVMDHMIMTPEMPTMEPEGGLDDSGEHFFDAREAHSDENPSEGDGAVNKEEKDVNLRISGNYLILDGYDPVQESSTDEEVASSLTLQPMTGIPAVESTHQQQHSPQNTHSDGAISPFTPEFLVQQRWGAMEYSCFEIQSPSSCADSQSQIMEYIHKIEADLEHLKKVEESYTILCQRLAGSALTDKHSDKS
In test [4] the target is HTRA1-1, PDZ domain of HTRA1 (human) (UniProt Q92743). The description is as above.
HTRA1-1, PDZ domain of HTRA1 (human), sequence (Q92743 23-480): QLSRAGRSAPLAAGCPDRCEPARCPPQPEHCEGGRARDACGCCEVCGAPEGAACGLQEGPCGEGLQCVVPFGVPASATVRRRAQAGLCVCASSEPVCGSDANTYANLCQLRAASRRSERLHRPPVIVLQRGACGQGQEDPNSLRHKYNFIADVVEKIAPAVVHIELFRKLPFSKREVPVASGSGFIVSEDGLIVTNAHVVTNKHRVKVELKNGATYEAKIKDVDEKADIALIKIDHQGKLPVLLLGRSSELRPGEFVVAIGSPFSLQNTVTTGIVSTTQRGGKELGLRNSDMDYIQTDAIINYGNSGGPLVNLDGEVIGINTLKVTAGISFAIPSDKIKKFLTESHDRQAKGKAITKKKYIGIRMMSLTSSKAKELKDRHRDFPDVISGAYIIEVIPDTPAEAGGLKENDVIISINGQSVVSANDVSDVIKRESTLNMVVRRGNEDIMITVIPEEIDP
Test [5] deals with SNTA1-1, PDZ domain of SNTA1 (human) (UniProt Q13424). The description is as above.
SNTA1-1, PDZ domain of SNTA1 (human), sequence (Q13424 whole entry, the tested form may be a part): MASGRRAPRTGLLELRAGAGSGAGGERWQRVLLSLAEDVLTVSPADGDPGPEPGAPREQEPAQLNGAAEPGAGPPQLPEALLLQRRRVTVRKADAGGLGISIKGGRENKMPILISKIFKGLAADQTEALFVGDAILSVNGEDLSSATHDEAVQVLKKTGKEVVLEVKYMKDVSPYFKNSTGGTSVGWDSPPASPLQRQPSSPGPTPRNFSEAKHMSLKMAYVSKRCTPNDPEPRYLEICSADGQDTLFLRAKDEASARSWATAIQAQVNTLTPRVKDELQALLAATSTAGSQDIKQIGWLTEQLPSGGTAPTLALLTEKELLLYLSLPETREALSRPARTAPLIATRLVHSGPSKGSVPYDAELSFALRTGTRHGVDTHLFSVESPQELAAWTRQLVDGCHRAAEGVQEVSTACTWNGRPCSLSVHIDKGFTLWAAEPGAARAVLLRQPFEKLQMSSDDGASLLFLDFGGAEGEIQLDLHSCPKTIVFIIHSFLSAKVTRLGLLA
The target in test [6] is MAST1-1, PDZ domain of MAST1 (human) (UniProt Q9Y2H9). Described as above.
MAST1-1, PDZ domain of MAST1 (human), sequence (Q9Y2H9 whole entry, the tested form may be a part): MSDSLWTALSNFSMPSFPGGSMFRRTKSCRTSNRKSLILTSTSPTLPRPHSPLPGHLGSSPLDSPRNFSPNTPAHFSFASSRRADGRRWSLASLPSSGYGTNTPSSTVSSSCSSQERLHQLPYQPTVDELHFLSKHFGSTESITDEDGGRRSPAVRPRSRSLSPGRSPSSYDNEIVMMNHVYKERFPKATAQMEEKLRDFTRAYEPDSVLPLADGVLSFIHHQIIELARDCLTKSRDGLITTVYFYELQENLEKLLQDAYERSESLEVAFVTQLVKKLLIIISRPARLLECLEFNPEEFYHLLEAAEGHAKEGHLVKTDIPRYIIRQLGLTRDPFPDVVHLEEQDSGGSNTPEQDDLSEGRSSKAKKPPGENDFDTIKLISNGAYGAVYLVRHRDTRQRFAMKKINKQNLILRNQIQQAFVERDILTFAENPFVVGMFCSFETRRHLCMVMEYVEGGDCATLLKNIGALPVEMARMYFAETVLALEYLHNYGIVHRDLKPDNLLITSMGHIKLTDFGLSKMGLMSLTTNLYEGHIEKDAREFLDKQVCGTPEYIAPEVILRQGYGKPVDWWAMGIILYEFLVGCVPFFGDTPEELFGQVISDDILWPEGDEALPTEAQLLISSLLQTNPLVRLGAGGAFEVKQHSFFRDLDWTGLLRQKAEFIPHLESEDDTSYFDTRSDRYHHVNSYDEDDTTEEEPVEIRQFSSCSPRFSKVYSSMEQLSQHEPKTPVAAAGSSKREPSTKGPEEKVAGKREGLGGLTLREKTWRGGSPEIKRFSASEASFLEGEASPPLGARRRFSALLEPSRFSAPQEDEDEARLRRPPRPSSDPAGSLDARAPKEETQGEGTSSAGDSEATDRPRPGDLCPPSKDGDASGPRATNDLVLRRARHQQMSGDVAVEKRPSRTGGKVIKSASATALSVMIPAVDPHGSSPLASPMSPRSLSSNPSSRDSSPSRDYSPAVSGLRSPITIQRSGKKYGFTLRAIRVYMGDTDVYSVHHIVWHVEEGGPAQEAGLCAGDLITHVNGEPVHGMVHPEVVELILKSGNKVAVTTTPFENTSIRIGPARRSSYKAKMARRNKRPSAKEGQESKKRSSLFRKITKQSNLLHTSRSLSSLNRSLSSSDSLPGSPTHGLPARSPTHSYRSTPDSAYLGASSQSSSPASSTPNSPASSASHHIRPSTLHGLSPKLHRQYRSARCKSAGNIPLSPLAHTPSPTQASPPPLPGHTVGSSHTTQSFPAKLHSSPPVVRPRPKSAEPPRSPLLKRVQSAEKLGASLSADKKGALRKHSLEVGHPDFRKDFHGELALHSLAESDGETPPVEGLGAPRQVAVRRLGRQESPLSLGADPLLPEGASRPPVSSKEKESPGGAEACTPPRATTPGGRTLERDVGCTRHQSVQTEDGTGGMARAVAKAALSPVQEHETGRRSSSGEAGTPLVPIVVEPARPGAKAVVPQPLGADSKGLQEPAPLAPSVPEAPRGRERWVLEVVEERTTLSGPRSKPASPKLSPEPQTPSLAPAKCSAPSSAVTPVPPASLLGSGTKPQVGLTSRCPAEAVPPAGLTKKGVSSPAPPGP
The target of test [7] is MAST2-1, PDZ domain of MAST2 (human) (UniProt Q6P0Q8). Described as above.
Test [8] has as its target SNTB1-1, PDZ domain of SNTB1 (human) (UniProt Q13884). The test is described as above.
In test [9] the target is GRID2IP-2, second PDZ domain of GRID2IP (human) (UniProt A4D2P6). The description is as above.
GRID2IP-2, second PDZ domain of GRID2IP (human), sequence (A4D2P6 279-356): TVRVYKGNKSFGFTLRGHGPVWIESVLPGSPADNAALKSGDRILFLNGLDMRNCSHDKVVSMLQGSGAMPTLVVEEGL
Test [10] deals with SNX27-1, PDZ domain of SNX27 (human) (UniProt Q96L92). Described as above.
Another test deals with PTEN_11 (human) (UniProt P60484). Kind of test: holdup assay; biotinylated PBM peptide saturating streptavidin resin (biotin resin as reference); tag-PDZ at 4 uM in crude E. coli lysate, 15 min, filtration, free tag-PDZ by capillary electrophoresis; singlicate; BI cut-off 0.20; BI converted into KD with the peptide concentration back-calculated from FP.
The target of test [11] is fpRSK1, fluorescein-labelled phosphorylated RSK1 PBM peptide. Briefly: fluorescence polarisation; direct: N-terminally fluorescein-labelled PBM peptide (tracer) with increasing amounts of MBP-PDZ; 384-well plates; triplicate; direct binding model (ProFit). (In fluorescence polarisation assays a small probe gives low polarisation when free and higher when bound to something large.)

A further test concerns the target PTEN_KR (human) (UniProt P60484). Briefly: holdup assay; biotinylated PBM peptide saturating streptavidin resin (biotin resin as reference); tag-PDZ at 4 uM in crude E. coli lysate, 15 min, filtration, free tag-PDZ by capillary electrophoresis; singlicate; BI cut-off 0.20; BI converted into KD with the peptide concentration back-calculated from FP.
For test [12], the target named is SNTG2-1, PDZ domain of SNTG2 (human) (UniProt Q9NY99). Briefly: fluorescence polarisation; competitive: pre-formed complex of PDZ domain (>60-80% complex) and 50 nM fluorescent tracer peptide, increasing amount of unlabeled PTEN peptide (8 concentrations); 20 mM HEPES pH 7.5, 150 mM NaCl, 0.5 mM TCEP, 0.01% Tween 20; triplicate; competitive binding model (ProFit); apparent.

Another test has as its target SNX27-1 (human). Briefly: fluorescence polarisation; competitive: 50 nM fluorescent tracer peptide pre-formed with the PDZ domain (>60-80% complex), unlabeled peptide added at 8 concentrations; 20 mM HEPES pH 7.5, 150 mM NaCl, 0.5 mM TCEP, 0.01% Tween 20; triplicate; apparent.
Another test has as its target MAST2-1 (human). Described as above.
In the next test the target is MAST1-1 (human). The description is as above.
Test [13] deals with f16E6, fluorescein-labelled HPV16 E6 PBM peptide (HPV16). Briefly: fluorescence polarisation; direct: N-terminally fluorescein-labelled PBM peptide (tracer) with increasing amounts of MBP-PDZ; 384-well plates; triplicate; direct binding model (ProFit).

SNTB1-1, PDZ domain of SNTB1 (human), sequence (Q13884 whole entry, the tested form may be a part): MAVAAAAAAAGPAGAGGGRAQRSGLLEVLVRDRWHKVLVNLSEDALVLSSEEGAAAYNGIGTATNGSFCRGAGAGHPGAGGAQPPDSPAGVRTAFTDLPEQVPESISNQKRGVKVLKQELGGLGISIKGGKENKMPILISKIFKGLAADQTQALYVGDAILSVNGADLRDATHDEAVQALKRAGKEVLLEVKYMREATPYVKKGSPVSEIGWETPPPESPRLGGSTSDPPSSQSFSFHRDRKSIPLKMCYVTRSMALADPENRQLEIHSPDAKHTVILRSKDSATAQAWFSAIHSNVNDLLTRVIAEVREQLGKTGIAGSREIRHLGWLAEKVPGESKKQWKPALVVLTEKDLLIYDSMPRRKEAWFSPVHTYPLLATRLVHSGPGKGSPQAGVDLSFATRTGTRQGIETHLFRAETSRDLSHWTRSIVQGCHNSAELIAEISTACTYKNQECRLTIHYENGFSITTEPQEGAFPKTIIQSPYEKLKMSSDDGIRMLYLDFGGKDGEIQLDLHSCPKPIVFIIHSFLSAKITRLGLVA

With “HTRA1-1, PDZ domain of HTRA1 (from UniProt Q92743 23-480) (domain or fragment)”, the Kd in test [1] turned out to be 64.8 µM.
Consider SNX27-1 (domain or fragment), for which the Kd is 6 µM with PTEN_13 (human) and 4 µM with PTEN_Ac (human).
Take “PTEN_13, 13-mer wild-type PDZ-binding motif peptide of PTEN”: the Kd in test [2] worked out at 82.1 µM; in test [3], 100 µM; in test [4], 25.3 µM; in test [5], 123 µM; in test [6], 7.62 µM; in test [7], 1.28 µM. For the same substance, the Kd in test [8] was found to be 44.5 µM; in test [9] it was 59.1 µM; in [10], 7.95 µM.
“NHERF2-2 (from UniProt Q15599 150-230) (domain or fragment)”: the Kd with PTEN_11 (human) was 35 µM.
Take “PARD3-3 (from UniProt Q8TEW0 590-677) (domain or fragment)”: in the test with PTEN_11 (human), the Kd was 160 µM.
Consider “PTEN_11, 11-mer wild-type PDZ-binding motif peptide of PTEN”, for which the Kd is 131 µM in test [2]; 113 µM in test [3]; 194 µM in test [5]; 10.9 µM in [6]; 67 µM in [8]; 13.8 µM in test [10].
As to “SNTA1-1, PDZ domain of SNTA1 (from UniProt Q13424 1-505) (domain or fragment)”, in test [11], the Kd turned out to be 20.4 µM.
For MAST2-1 (domain or fragment), the Kd with PTEN_11 (human) was 13 µM; with PTEN_KR (human) it was 7 µM; in the test with PTEN_Ac (human), 4 µM.
On to “MAGI3-2 (from UniProt Q5TCQ9 410-492) (domain or fragment)”, for which, in the test with PTEN_Ac (human), the Kd was 39 µM.
MAST1-1 (domain or fragment): the Kd is 39 µM with PTEN_11 (human), 32 µM in the test with PTEN_KR (human) and 26 µM with PTEN_Ac (human).
The matching figures for MAST3-1 (domain or fragment): 241 µM, 82 µM and 85 µM.
For the substance “PTEN_KR, 11-mer PTEN PDZ-binding motif peptide with K402R”, the Kd in test [2] was 47.4 µM; in [3] it was 114 µM; in test [4] it was 36.2 µM; in test [5], 65.1 µM; in [6], 9.11 µM; in [7], 2.39 µM. The figures for the Kd in test [8], in test [12] and in test [10] were 24.4 µM, 141 µM and 8.32 µM, respectively.
Take “MAST2-1, PDZ domain of MAST2 (from UniProt Q6P0Q8 1-1798) (domain or fragment)”: the Kd in [1] was determined as 6.87 µM.
Take “PTEN_11 (from UniProt P60484 393-403) (peptide)”: the Kd with SNX27-1 (human) was 14 µM.
Consider “PTEN_13 (from UniProt P60484 391-403) (peptide)”, for which the results for the Kd with MAST2-1 (human) and with MAST1-1 (human) were 1 µM and 8 µM, respectively.
As for “PTEN_Ac, 11-mer PTEN PDZ-binding motif peptide acetylated at K402”, the Kd in test [2] worked out at 70.2 µM; in test [3], 65.5 µM; in [4], 10.2 µM; in test [5], 45.3 µM; in test [6], 7.4 µM; in [7], 2.56 µM. The Kd in test [8] was found to be 14.5 µM; in test [12], 377 µM; in [10], 4.07 µM.
In test [11], “SNTB1-1, PDZ domain of SNTB1 (from UniProt Q13884 1-538) (domain or fragment)” displayed a Kd of 3.98 µM.
In the case of “DLG1-2 (from UniProt Q12959 319-405) (domain or fragment)”, the Kd with PTEN_Ac (human) was 36 µM.
With “PTPN13-2 (from UniProt Q12923 1368-1452) (domain or fragment)”, in the test with PTEN_11 (human), the Kd was 148 µM.
For “MAST1-1, PDZ domain of MAST1 (from UniProt Q9Y2H9 1-1570) (domain or fragment)”, the Kd in test [13] is 7.52 µM.
In test [11], “SNTG2-1, PDZ domain of SNTG2 (from UniProt Q9NY99 1-539) (domain or fragment)” displayed a Kd of 21.9 µM.
For the substance “PTPN13-4 (from UniProt Q12923 1788-1868) (domain or fragment)”, the Kd with PTEN_Ac (human) is 10 µM.
On to SNTB2-1 (domain or fragment), for which the Kd with PTEN_13 (human) is 64 µM.
Regarding “PTEN_KR (from UniProt P60484 393-403) (peptide)”, in the test with SNX27-1 (human), the Kd is 8 µM.
In test [1], “ARHGEF12-1, PDZ domain of ARHGEF12 (from UniProt Q9NZN5 1-1544) (domain or fragment)” gave a Kd of 3.96 µM.
